In patent publication US20210284724A1 (I MAB BIOPHARMA US, published 2021):

What was measured:
[1] = molecular target: T1, human CXCL13 (human, UniProt O43927 23-109); assay: SPR Biacore 8K, Fab over immobilised CXCL13
T1 construct: also called huCXCL13; rhCXCL13
T1 sequence (looked up): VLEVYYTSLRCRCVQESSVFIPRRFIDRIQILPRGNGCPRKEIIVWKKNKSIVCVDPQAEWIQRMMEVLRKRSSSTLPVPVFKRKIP
In short: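 Surface plasmon resonance: CXCL13 amine-coupled to CM5 chip at ~250 RU, humanized Fabs injected at 0–20 nM, 30 μl/min, in HEPES-buffered saline with EDTA and Tween-20, pH 7.4. Dissociation 600 s; regeneration with glycine-HCl pH 2.0.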

[2] = molecular target: T1, human CXCL13; assay: SPR Biacore, off-rate ranking of Fabs
[3] = molecular target: T2, human CXCL13 F20A (human, UniProt O43927 23-109); assay: alanine scan, flow cytometry
T2 construct: mature; 87 residues fits the mature chain
T2 sequence (looked up): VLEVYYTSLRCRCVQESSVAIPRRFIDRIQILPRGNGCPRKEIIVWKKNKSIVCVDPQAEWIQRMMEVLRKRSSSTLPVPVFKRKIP
Experimental: (§1) Cells were transfected with different WT construct or […] mutant construct which each amino acid was mutant to alanine, totally 87 amino acids. Then, binding of the test Fab to each mutant clone in the alanine scanning library was determined, in duplicate, by high-throughput flow cytometry. For each point, background fluorescence was subtracted from the raw data, which were then normalized to Fab reactivity with WT target protein. For each mutant clone, the mean binding value was plotted as a function of expression (represented by control reactivity). To identify preliminary primary critical clones (red circles), a threshold (dashed lines) of >70% WT binding to control Ab and <20% WT binding to test Fab was applied.

[4] = molecular target: T1, human CXCL13; assay: SPR Biacore 8K, Fab over immobilised CXCL13; remark: listed apart in the source
In short: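 Fabs (0–16 nM series) flowed at 30 μl/min over CXCL13 amine-coupled to CM5 (~30 RU) on Biacore 8K, 600 s dissociation. Running buffer HEPES 10 mM, NaCl 150 mM, EDTA 3 mM, 0.05% Tween-20, pH 7.4; regeneration with 10 mM glycine-HCl pH 2.0.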

[5] = molecular target: T3, human CXCL13 F25A (human, UniProt O43927 23-109); assay: alanine scan, flow cytometry on transfected cells
T3 construct: mature; 87 residues fits the mature chain
T3 sequence (looked up): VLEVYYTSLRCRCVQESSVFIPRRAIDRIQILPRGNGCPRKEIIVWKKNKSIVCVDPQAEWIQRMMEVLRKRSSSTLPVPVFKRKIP
Experimental: as §1
(§2) We draw the crystal structure diagram in the FIG. 8B, and the critical residues for 64C10G1 Fab binding were visualized and shown on this crystal structure.

[6] = molecular target: T4, human CXCL13 P22A (human, UniProt O43927 23-109); assay: alanine scan, flow cytometry on transfected cells
T4 construct: mature; 87 residues fits the mature chain
T4 sequence (looked up): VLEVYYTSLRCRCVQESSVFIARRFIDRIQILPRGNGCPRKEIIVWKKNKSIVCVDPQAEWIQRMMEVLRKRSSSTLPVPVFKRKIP
Experimental: as §1, §2

[7] = molecular target: T5, human CXCL13 R24A (human, UniProt O43927 23-109); assay: alanine scan, flow cytometry on transfected cells
T5 construct: mature; 87 residues fits the mature chain
T5 sequence (looked up): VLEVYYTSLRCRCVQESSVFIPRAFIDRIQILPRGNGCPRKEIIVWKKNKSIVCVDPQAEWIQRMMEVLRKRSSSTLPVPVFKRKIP
Experimental: as §1, §2

[8] = molecular target: T2, human CXCL13 F20A; assay: alanine scan, flow cytometry on transfected cells
Experimental: as §1, §2

[9] = molecular target: T1, human CXCL13; assay: cell-based blocking assay, CXCL13 to CXCR5 cells
In short: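 To obtain IC50, a titration of humanized Fabs was tested against human CXCL13 binding to CHO-K1 cells expressing CXCR5. The cells (5×10⁴/well) were plated overnight at 37° C, fixed with 2% PFA and blocked with 1% BSA in PBST, then given 100 μl of Fab mixed with an equal volume of 0.3 μg/ml CXCL13 after a 30 min pre-incubation at room temperature. After 30 min on the cells and three PBST washes, bound CXCL13 was captured with 3 μg/ml human anti-CXCL13 antibody, detected with anti-human Fc-HRP and read at 450 nm.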

[10] = molecular target: T1, human CXCL13; assay: ELISA binding, Fab

B1: 64C10G1 chimeric Fab (Fab, V domains shown)
VH: EVQLVESGGGLVKPGGSLKLSCAASGFTFSSYAMSWVRQTPEKRLEWVATISDGGSDAYYPDNVKGRFTISRDNAKNNLYLQMSHLKSEDTAMYYCARDYYGSGYEDSPMDYWGQGTSVTVSS
VL: DIQMTQSPSSLSASLGGKVTITCKASQDINKYIAWYQHKPGKGPRLLIHYTSTLQPGIPSRFSGSGSGRDYSFSISNLEPEDFATYYCLQYDNLYTFGGGTKLEIK
notes: Fab; also called 64C10G1 Fab
- Kd [1]: 0.814 nM
- koff [1]: 0.00218 s⁻¹
- kon [1]: 2.68e+06 M⁻¹ s⁻¹
- Kd [2]: 0.814 nM
- koff [2]: 0.00218 s⁻¹
- kon [2]: 2.68e+06 M⁻¹ s⁻¹
- binding result [3]: no binding (tested: <20% WT binding)
- Kd [4]: 0.178 nM
- koff [4]: 0.0005 s⁻¹
- kon [4]: 2.81e+06 M⁻¹ s⁻¹
- Binding reactivity (% WT) [5]: -3.2 % WT
- Binding reactivity (% WT) [6]: 14.8 % WT
- Binding reactivity (% WT) [7]: -3.3 % WT
- Binding reactivity (% WT) [8]: 9.4 % WT
- IC50 [9]: 7.22 nM
- EC50 [10]: 1.71 nM
